Assay results taken from paper PMC3219680 (2011).

T1: Mouse Cerberus 1 homologue (mCer1) recombinant protein (mouse, UniProt O55233 18-272)
T1 chain: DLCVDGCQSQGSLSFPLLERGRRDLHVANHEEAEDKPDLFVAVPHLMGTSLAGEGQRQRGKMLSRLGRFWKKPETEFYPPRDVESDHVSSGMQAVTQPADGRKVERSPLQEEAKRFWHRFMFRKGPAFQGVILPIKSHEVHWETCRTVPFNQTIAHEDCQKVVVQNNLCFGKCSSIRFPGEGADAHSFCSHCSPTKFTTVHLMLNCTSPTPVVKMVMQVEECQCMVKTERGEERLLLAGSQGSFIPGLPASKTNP


Target: T1, Mouse Cerberus 1 homologue (mCer1) …
Experiment: SPR

Row | Kd [nM] | Binder
1 | 23.4 | hBMP4 (ligand) SPKHHSQRARKKNKNCRRHSLYVDFSDVGWNDWIVAPPGYQAFYCHGDCPFPLADHLNSTNHAIVQTLVNSVNSSIPKACCVPTELSAISMLYLDEYDKVVLKNYQEMVVEGCGCR
2 | 3.38 | hBMP2 (ligand) QAKHKQRKRLKSSCKRHPLYVDFSDVGWNDWIVAPPGYHAFYCHGECPFPLADHLNSTNHAIVQTLVNSVNSKIPKACCVPTELSAISMLYLDENEKVVLKNYQDMVVEGCGCR
